The target of one data set is PilG257-410 (Neisseria meningitidis MC58, UniProt Q7DDR1 257-410). As to the kind of experiment: South-western; Optimized EMSA: 50 mM HEPES pH 7.5, 100 mM NaCl, 5 mM MgCl2, 1 mM DTT, 10% glycerol, 0.05% DDM, on ice 15 min, 0.45 nM DNA; first EMSA: 25 mM NaH2PO4 pH 8.0, 150 mM NaCl, 1 mM DTT, 10% glycerol, 0.05% DDM, on ice. The conditions noted are these: protein: recombinant, tags: C-terminal 6xHis, label: 32P end label.

A further data set addresses PilG30-80 (Neisseria meningitidis MC58, UniProt Q7DDR1 30-80). The data set is described as above. The conditions noted are these: protein: recombinant, tags: C-terminal 6xHis, label: 32P end label.
The target of a further data set is PilG166-410 (Neisseria meningitidis MC58, UniProt Q7DDR1 166-410). The description is as above. The following applies: protein: recombinant, tags: C-terminal 6xHis, label: 32P end label.
In another data set the target is PilG1-60 (Neisseria meningitidis MC58, UniProt Q7DDR1 1-60). The data set is described as above. The following applies: protein: recombinant, tags: C-terminal 6xHis, label: 32P end label.
The target of data set [1] is T1, PilG1-80 (Neisseria meningitidis MC58, UniProt Q7DDR1 1-80). Nature of the data set: EMSA; 5 mM MgCl2; Optimized EMSA: 50 mM HEPES pH 7.5, 100 mM NaCl, 5 mM MgCl2, 1 mM DTT, 10% glycerol, 0.05% DDM, on ice 15 min, 0.45 nM DNA; first EMSA: 25 mM NaH2PO4 pH 8.0, 150 mM NaCl, 1 mM DTT, 10% glycerol, 0.05% DDM, on ice. The following applies: protein: recombinant; tags: C-terminal 6xHis; label: 32P end label; blunt. (In EMSA bound probe runs differently from free probe, usually more slowly.)

The next data set deals with PilG Q55A (Neisseria meningitidis MC58, UniProt Q7DDR1 1-410, Q55A). Nature of the data set: South-western; same as FL; Optimized EMSA: 50 mM HEPES pH 7.5, 100 mM NaCl, 5 mM MgCl2, 1 mM DTT, 10% glycerol, 0.05% DDM, on ice 15 min, 0.45 nM DNA; first EMSA: 25 mM NaH2PO4 pH 8.0, 150 mM NaCl, 1 mM DTT, 10% glycerol, 0.05% DDM, on ice. The conditions noted are these: protein: recombinant, tags: C-terminal 6xHis, label: 32P end label.

In another data set the target is PilG SS62-63AA (Neisseria meningitidis MC58, UniProt Q7DDR1 1-410, S62A;S63A). The data set is described as above. The conditions noted are these: protein: recombinant, tags: C-terminal 6xHis, label: 32P end label.
The target of data set [2] is T2, PilG FL (Neisseria meningitidis MC58, UniProt Q7DDR1 1-410). Nature of the data set: EMSA; optimized EMSA; R2 0.96?; Optimized EMSA: 50 mM HEPES pH 7.5, 100 mM NaCl, 5 mM MgCl2, 1 mM DTT, 10% glycerol, 0.05% DDM, on ice 15 min, 0.45 nM DNA; first EMSA: 25 mM NaH2PO4 pH 8.0, 150 mM NaCl, 1 mM DTT, 10% glycerol, 0.05% DDM, on ice. The conditions noted are these: protein: recombinant; tags: C-terminal 6xHis; label: 32P end label; blunt.

Data set [3] has as its target T3, PilG EEE39-41AAA (Neisseria meningitidis MC58, UniProt Q7DDR1 1-410, E39A;E40A;E41A). Nature of the data set: South-western; increased vs FL per text; Optimized EMSA: 50 mM HEPES pH 7.5, 100 mM NaCl, 5 mM MgCl2, 1 mM DTT, 10% glycerol, 0.05% DDM, on ice 15 min, 0.45 nM DNA; first EMSA: 25 mM NaH2PO4 pH 8.0, 150 mM NaCl, 1 mM DTT, 10% glycerol, 0.05% DDM, on ice. The conditions noted are these: protein: recombinant; tags: C-terminal 6xHis; label: 32P end label; blunt.

The target in another data set is PilG RKK43-45AAA (Neisseria meningitidis MC58, UniProt Q7DDR1 1-410, R43A;K44A;K45A). Nature of the data set: EMSA; extrapolated; about 50% bound at 5 uM per text; Optimized EMSA: 50 mM HEPES pH 7.5, 100 mM NaCl, 5 mM MgCl2, 1 mM DTT, 10% glycerol, 0.05% DDM, on ice 15 min, 0.45 nM DNA; first EMSA: 25 mM NaH2PO4 pH 8.0, 150 mM NaCl, 1 mM DTT, 10% glycerol, 0.05% DDM, on ice. The conditions noted are these: protein: recombinant; tags: C-terminal 6xHis; label: 32P end label; blunt.

For data set [4], the target named is T4, PilG1-178 (Neisseria meningitidis MC58, UniProt Q7DDR1 1-178). As to the kind of experiment: EMSA; 5 mM MgCl2; DUS+ duplex assigned by Table 2 EMSA footnote; Optimized EMSA: 50 mM HEPES pH 7.5, 100 mM NaCl, 5 mM MgCl2, 1 mM DTT, 10% glycerol, 0.05% DDM, on ice 15 min, 0.45 nM DNA; first EMSA: 25 mM NaH2PO4 pH 8.0, 150 mM NaCl, 1 mM DTT, 10% glycerol, 0.05% DDM, on ice. The following applies: protein: recombinant; tags: C-terminal 6xHis; label: 32P end label; blunt.

Data set [5] has as its target T4, PilG1-178. As to the kind of experiment: South-western; Optimized EMSA: 50 mM HEPES pH 7.5, 100 mM NaCl, 5 mM MgCl2, 1 mM DTT, 10% glycerol, 0.05% DDM, on ice 15 min, 0.45 nM DNA; first EMSA: 25 mM NaH2PO4 pH 8.0, 150 mM NaCl, 1 mM DTT, 10% glycerol, 0.05% DDM, on ice. The conditions noted are these: protein: recombinant; tags: C-terminal 6xHis; label: 32P end label.

For another data set, the target named is PilG1-256 (Neisseria meningitidis MC58, UniProt Q7DDR1 1-256). The description is as above. The conditions noted are these: protein: recombinant; tags: C-terminal 6xHis; label: 32P end label.
A further data set deals with PilG1-140 (Neisseria meningitidis MC58, UniProt Q7DDR1 1-140). The data set is described as above. The conditions noted are these: protein: recombinant; tags: C-terminal 6xHis; label: 32P end label.
Data set [6] concerns the target T1, PilG1-80. The description is as above. The following applies: protein: recombinant; tags: C-terminal 6xHis; label: 32P end label.
In data set [7] the target is T2, PilG FL. The data set is described as above. The conditions noted are these: protein: recombinant; tags: C-terminal 6xHis; label: 32P end label.
Data set [8] concerns the target T3, PilG EEE39-41AAA. Nature of the data set: South-western; increased vs FL; Optimized EMSA: 50 mM HEPES pH 7.5, 100 mM NaCl, 5 mM MgCl2, 1 mM DTT, 10% glycerol, 0.05% DDM, on ice 15 min, 0.45 nM DNA; first EMSA: 25 mM NaH2PO4 pH 8.0, 150 mM NaCl, 1 mM DTT, 10% glycerol, 0.05% DDM, on ice. The following applies: protein: recombinant; tags: C-terminal 6xHis; label: 32P end label.

B1: HH7HH8 (dsDNA)
DNA 1: AACAACAACAAATGCCGTCTGAACCAACATGCCGTCTGAAAACAACAACAAC
DNA 2: GTTGTTGTTGTTTTCAGACGGCATGTTGGTTCAGACGGCATTTGTTGTTGTT
Regarding B1, the binding result is reported as “no binding” with PilG257-410 (blunt); “no binding” with PilG30-80 (blunt); “no binding” in the data set with PilG166-410 (blunt); “no binding” with PilG1-60 (blunt); “binds” in the data set with PilG Q55A (blunt); “binds” with PilG SS62-63AA (blunt). Besides, the binding result with PilG EEE39-41AAA [3] is “binds”. The “apparent K (half saturation)” value in the data set with PilG1-80 [1] is 283 nM; in the data set with PilG FL [2] it was 1070 nM; with PilG RKK43-45AAA, around 685 µM; in the data set with PilG1-178 [4], 269 nM.

B2: HH9 (ssDNA)
DNA: GTTGTTGTTGTTATGCCGTCTGAAGTTGGATGCCGTCTGAATTGTTGTTGTT
With B2, the binding result is reported as “binds” with PilG1-178 [5]; “no binding” with PilG257-410; “no binding” with PilG30-80; “no binding” with PilG166-410; “binds” with PilG1-256; “binds” with PilG1-140. The binding result in the data set with PilG1-80 [6] was “binds”; with PilG1-60, “no binding”; in the data set with PilG FL [7], “binds”; with PilG Q55A it was “binds”; in the data set with PilG SS62-63AA, “binds”; in the data set with PilG EEE39-41AAA [8] it was “binds”.

Values taken from paper PMC4527729, “The Inner Membrane Protein PilG Interacts with DNA and the Secretin PilQ in Transformation”.
